Data on 30 substances can be found in patent publication US20250154262A1.

For assay [1], the target named is hFcγRIIIa-V158 (human) (UniProt P08637). As to the kind of experiment: SPR, further study.
For assay [2] the target is unchanged. As to the kind of experiment: SPR (Carterra LSA), protein AG capture.
Assay [3] has the same target. Nature of the assay: SPR (Carterra LSA), captured on protein A/G, hFcγRIIIa-V158 injected, 1:1 fit.
Assay [4] has the same target. Nature of the assay: SPR (Carterra LSA), captured on protein A/G, hFcγRIIIa-V158 injected, 1:1 fit [Cont. 3].
Assay [5] has the same target. As to the kind of experiment: SPR (Carterra LSA), captured on protein A/G, hFcγRIIIa-V158 injected, 1:1 fit [Cont. 7].
The target is the same in assay [6]. As to the kind of experiment: SPR (Carterra LSA), captured on protein A/G, hFcγRIIIa-V158 injected, 1:1 fit [Cont. 5].

Sequence of hFcγRIIIa-V158 (human) (P08637 17-208 F176V limits assumed): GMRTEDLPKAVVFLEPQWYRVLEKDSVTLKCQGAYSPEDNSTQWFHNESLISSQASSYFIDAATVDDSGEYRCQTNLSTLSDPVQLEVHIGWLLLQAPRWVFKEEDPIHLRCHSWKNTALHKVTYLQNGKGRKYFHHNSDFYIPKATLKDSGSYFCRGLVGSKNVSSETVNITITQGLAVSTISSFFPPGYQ

As usually defined, the Kd is the free concentration of one partner at which half of the binding sites on the other are occupied at equilibrium, for simple one-to-one binding. A low value points to tighter binding. The koff is the first-order rate constant of dissociation. One may read the kon as the second-order rate constant of association. Low values mean slower complex formation, high ones faster complex formation. As for H268D, A330F, S298A (antibody), in the assay with hFcγRIIIa-V158 (human) [1], the Fold Change vs. WT came to 6 fold, the Kd is 80.1 nM, the koff is 0.0311 s⁻¹ and the kon worked out at 389000 M⁻¹ s⁻¹.

In the assay with hFcγRIIIa-V158 (human) [1], H268D, L314K (antibody) came in with a Fold Change vs. WT of 3 fold, a Kd of 159 nM, a koff of 0.0516 s⁻¹ and an on-rate (kon) of 324000 M⁻¹ s⁻¹.

Turning to H268D, L314M, S298A (antibody), the Kd with hFcγRIIIa-V158 (human) [1] was found to be 85.1 nM.

In the assay with hFcγRIIIa-V158 (human) [1], H268D, L314N (antibody) gave a Fold Change vs. WT of 4.9 fold, a Kd of 96.5 nM, a koff of 0.0452 s⁻¹ and a kon of 471000 M⁻¹ s⁻¹.

As to H268D, L314S (antibody), in the assay with hFcγRIIIa-V158 (human) [1], the Fold Change vs. WT came out at 3.1 fold, the Kd is 152 nM, the dissociation rate constant (koff) amounted to 0.0434 s⁻¹ and the kon is 286000 M⁻¹ s⁻¹.

In the assay with hFcγRIIIa-V158 (human) [1], H268D, L314T, S298A (antibody) returned a Fold Change vs. WT of 10.2 fold, a Kd of 46.8 nM, a koff of 0.0217 s⁻¹ and a kon of 465000 M⁻¹ s⁻¹.

In the assay with hFcγRIIIa-V158 (human) [1], H268D, S267D, A339T (antibody) registered a Fold Change vs. WT of 4 fold, a Kd of 119 nM, a koff of 0.0525 s⁻¹ and a kon of 442000 M⁻¹ s⁻¹.

H268D, S298A (antibody) came in with a Kd in the assay with hFcγRIIIa-V158 (human) [1] of 95.7 nM.

Turning to H268D, Y373W (antibody), the dissociation constant (Kd) with hFcγRIIIa-V158 (human) [1] was 221 nM.

For the substance H268D, Y373W, S298A (antibody), in the assay with hFcγRIIIa-V158 (human) [1], the Fold Change vs. WT was 5.8 fold, the Kd stood at 82.6 nM, the koff amounted to 0.0273 s⁻¹ and the kon turned out to be 332000 M⁻¹ s⁻¹.

Regarding H268D_A330Y_D376V (antibody), the Kd with hFcγRIIIa-V158 (human) [1] amounted to 152 nM; with hFcγRIIIa-V158 (human) [2] it was 87.6 nM.

In the assay with hFcγRIIIa-V158 (human) [1], H268D_L251Q_L314M_S298A (antibody) came in with a Fold Change vs. WT of 7.8 fold, a Kd of 60.8 nM, a koff of 0.0279 s⁻¹ and a kon of 509000 M⁻¹ s⁻¹. Also, in the assay with hFcγRIIIa-V158 (human) [2], the Fold-change relative to WT is 11.8 fold, the dissociation constant (Kd) turned out to be 24.6 nM, the koff worked out at 0.0125 s⁻¹ and the kon came to 509000 M⁻¹ s⁻¹.

On to H268D_L251Q_S298A (antibody), for which the results for the Kd with hFcγRIIIa-V158 (human) [1] and in the assay with hFcγRIIIa-V158 (human) [2] were 55 nM and 31.1 nM, respectively.

With H268D_L314T (antibody), in the assay with hFcγRIIIa-V158 (human) [1], the Fold Change vs. WT came out at 3.8 fold, the Kd stood at 125 nM, the koff was found to be 0.0481 s⁻¹ and the kon was found to be 384000 M⁻¹ s⁻¹. For the same substance, in the assay with hFcγRIIIa-V158 (human) [2], the Fold-change relative to WT was 3.5 fold, the Kd worked out at 83 nM, the koff amounted to 0.026 s⁻¹ and the kon worked out at 314000 M⁻¹ s⁻¹.

As for H268E, L314T, D376V (antibody), in the assay with hFcγRIIIa-V158 (human) [1], the Kd amounted to 159 nM.

For S267D_A330Y_L251W (antibody), in the assay with hFcγRIIIa-V158 (human) [2], the Fold-change relative to WT was 2.6 fold, the Kd came to 111 nM, the koff was determined as 0.0391 s⁻¹ and the kon is 353000 M⁻¹ s⁻¹.

In the assay with hFcγRIIIa-V158 (human) [2], S267D_A330Y_L251W_D376V (antibody) displayed a Fold-change relative to WT of 3.2 fold, a dissociation constant Kd of 91.4 nM, a koff of 0.036 s⁻¹ and a kon of 394000 M⁻¹ s⁻¹.

For the substance S267D_A330Y_L314K (antibody), in the assay with hFcγRIIIa-V158 (human) [2], the Kd came to 268 nM.

In the assay with hFcγRIIIa-V158 (human) [2], S267D_A330Y_Y373W (antibody) yielded a Fold-change relative to WT of 2.3 fold, a dissociation constant (Kd) of 124 nM, a koff of 0.0371 s⁻¹ and an on-rate (kon) of 298000 M⁻¹ s⁻¹.

In the assay with hFcγRIIIa-V158 (human) [2], S267D_L314T_A339T (antibody) registered a Kd of 208 nM.

In the assay with hFcγRIIIa-V158 (human) [2], S267D_L314W_L251H_D376V (antibody) displayed a Fold-change relative to WT of 2.3 fold, a Kd of 124 nM, a koff of 0.036 s⁻¹ and an on-rate (kon) of 290000 M⁻¹ s⁻¹.

With S298A_A330Y_A339T (antibody), in the assay with hFcγRIIIa-V158 (human) [2], the Kd came out at 58.4 nM.

In the assay with hFcγRIIIa-V158 (human) [2], S298A_A330Y_A339T_Y373W (antibody) came in with a Fold-change relative to WT of 3.1 fold, a Kd of 93.3 nM, a koff of 0.0206 s⁻¹ and a kon of 221000 M⁻¹ s⁻¹.

On to S298A_A330Y_D376V (antibody), for which, in the assay with hFcγRIIIa-V158 (human) [2], the Fold-change relative to WT came to 3.8 fold, the Kd is 77.2 nM, the koff worked out at 0.0285 s⁻¹ and the kon was 369000 M⁻¹ s⁻¹.

In the assay with hFcγRIIIa-V158 (human) [2], S298A_A330Y_L251W (antibody) registered a Fold-change relative to WT of 3.2 fold, a Kd of 90.4 nM, a koff of 0.038 s⁻¹ and a kon of 421000 M⁻¹ s⁻¹.

Turning to S298A_A330Y_L251W_D376V (antibody), in the assay with hFcγRIIIa-V158 (human) [2], the Fold-change relative to WT was found to be 2.3 fold, the Kd was 127 nM, the koff is 0.0308 s⁻¹ and the kon turned out to be 243000 M⁻¹ s⁻¹.

As to S298A_A330Y_L314K (antibody), in the assay with hFcγRIIIa-V158 (human) [2], the Fold-change relative to WT came out at 3.3 fold, the Kd came to 88.4 nM, the koff was found to be 0.0207 s⁻¹ and the kon is 235000 M⁻¹ s⁻¹.

Take S298A_A330Y_Y373W (antibody): in the assay with hFcγRIIIa-V158 (human) [2], the Fold-change relative to WT is 1.2 fold, the Kd amounted to 251 nM, the koff is 0.0344 s⁻¹ and the kon came to 137000 M⁻¹ s⁻¹.

Consider “WT (from UniProt P01857 1-330) (antibody)”, for which the Kd in the assay with hFcγRIIIa-V158 (human) [1] worked out at 477 nM; with hFcγRIIIa-V158 (human) [2] it was 289 nM; in the assay with hFcγRIIIa-V158 (human) [3] it was 350 nM; with hFcγRIIIa-V158 (human) [4], 290 nM; with hFcγRIIIa-V158 (human) [5], 350 nM.

Regarding adalimumab (antibody), the Kd is 190 nM in the assay with hFcγRIIIa-V158 (human) [5] and 310 nM in the assay with hFcγRIIIa-V158 (human) [6].
